From patent US20230405140A1, “ANTI-CD56 ANTIBODY-DRUG CONJUGATES AND THEIR USE IN THERAPY” (MCSAF INSIDE ONCOLOGY, priority 2020, published 2023)

Experiments:
MKL-1 CRISPR CD56 = test: XTT assay, ADC-mediated cytotoxicity; format: cell-based; details: 4 days, CD56− cells, read-out: MKL-1 CRISPR CD56 n = 3 IC50
[1] = test system: CD56− cells (CRISPR-MCC cell lines WaGa and MKL-1); test: XTT assay, summary over CD56- CRISPR-MCC cell lines; format: cell-based; details: at high doses; in words
Description: (§1) To evaluate cell viability and cellular metabolic activity, XTT assays were performed according to standard protocols. WaGa, PeTa, H69, H209, H660 cell lines were plated in 3 replicates in a 96-well plate with 5.10^4 cells/well. […] Untreated cells were used as viability reference. Cells treated with 1% Triton X100 were used as cell death positive control. After 4 days, 25 μL XTT reagent at 1 mg/mL (Alfa Aesar, thermo Fisher) with N-methyl dibenzopyrazine methyl sulfate (PMS) activator (25 μM) was added per well and absorbance was measured at 450 nm after 4 h incubation. Absorbance at 620 nm was used as a reference. Three independent experiments have been performed.

primary NK cells = test: Killing effect on primary NK cells (Annexin V / 7-AAD flow cytometry); format: cell-based, human; details: for Killing effect on primary NK cells (ADCC): after 4 h of incubation, in words; for Killing effect on primary NK cells: after 4 days of incubation
Description: (§2) Primary natural killer cells (NK) and monocytes were obtained from blood of healthy adult volunteers at the Etablissement Français du Sang, according to institutional research protection guidelines agreement N° CA-REC-2019-188, Centre Val de Loire, France. Ficoll density centrifugation step (Eurobio) was performed to isolate peripheral blood mononuclear cells (PBMC).
NK cells were isolated from PBMC by negative selection (NK cell isolation kit human, Miltenyi Biotec) with purity higher than 95%. NK cells were cultured for up to 36 h in RPMI 1640 supplemented with 10% FCS, 1% penicillin and streptomycin, 1% L-glutamine and 100 UI/mL IL-2 at 37° C., 5% CO2 at 1.10^6 cells/mL.

PeTa = test: XTT assay, ADC-mediated cytotoxicity; format: cell-based; details: 4 days, read-out: PeTa n = 3 IC50
Description: as §1

WaGa = test: XTT assay, ADC-mediated cytotoxicity; format: cell-based; details: 4 days, read-out: WaGa n = 3 IC50
Description: as §1

WaGa CRISPR CD56 = test: XTT assay, ADC-mediated cytotoxicity; format: cell-based; details: 4 days, CD56− cells, read-out: WaGa CRISPR CD56 n = 3 IC50
Description: as §1

H209 = test: XTT assay, ADC-mediated cytotoxicity; format: cell-based; details: 4 days, read-out: H209 n = 3 IC50
Description: as §1

H69 = test: XTT assay, ADC-mediated cytotoxicity; format: cell-based; details: 4 days, read-out: H69 n = 3 IC50
Description: as §1

[2] = test system: solid tumors expressing CD56; details: several phase I studies; in words; cited from earlier work
[3] = test system: small cell lung carcinoma; details: phase II, in combination with chemotherapy (cisplatin-etoposide); in words; cited from earlier work
neutrophils = test: Killing effect on neutrophils (Annexin V / 7-AAD flow cytometry); format: cell-based, human; details: after 4 h of incubation; CD56 negative cells; at high concentration
From the text: The neutrophils were isolated directly from whole blood of healthy adult volunteers at the Etablissement Français du Sang, according to institutional research protection guidelines agreement N° CA-REC-2019-188, Centre Val de Loire, France, by negative selection, using the kit (MACSxpress® Whole Blood Neutrophil Isolation Kit, MiltenyBiotech™). The neutrophils were used directly following their isolation and then resuspended in HBSS buffer (1X) (Gibco 15266355), at 1×10^6 cells/mL.
(§3) 5% of CO2. […] All products were tested after 4 days treatment on NK cells and 4 h on monocytes and neutrophils.

monocytes = test: Killing effect on monocytes (Annexin V / 7-AAD flow cytometry); format: cell-based, human; details: after 4 h of incubation; in words
Description: as §2
Monocytes were isolated from PBMC by positive selection using anti-CD14 MicroBeads (Miltenyi Biotec) according to manufacturer recommendations. Monocytes were cultured in serum-free X-VIVO-15 medium (Lonza) at 1.10^6 cells/mL.
as §3

WaGa xenograft = test: Efficacy in vivo, WaGa xenograft, ADC 5 mg/kg twice a week; parameters: species or system NOD/SCID mice; details: 5 mg/kg IV twice a week; day 30
Description: Xenograft mice model: eighteen 7-week-old females NOD/SCID (Janvier Labs) mice were maintained under aseptic conditions. All animal procedures were approved by local ethics committee (Apafis #26772-2020072715262737 v2). WaGa cell line was used for tumor induction, as previously described in [9]. Mice received one subcutaneous injection of 1.10^7 WaGa cells with 10% matrigel on the back. General state and weight were monitored twice a week during the procedure. Tumor volume was measured with a caliper and tumor volume was calculated according to the formula: π/6×width×length×height. […] Mice were sacrificed 30 days after inclusion or when reaching one predefined endpoint (tumor ulceration, weight loss >20%, or prostration). Tumors, heart, lungs, spleen, and liver were removed for macroscopic examination. After dissection, tumor weight and volume were assessed. To detect metastatic spread and potential toxicity of ADCs, whole tumors and organs (heart, lungs, spleen, and liver), were formalin-fixed and paraffin embedded for microscopic evaluation to evaluate architecture changes, inflammatory infiltrate, necrosis, vascular changes, fibrosis and liver steatosis.

[4] = test system: CD56+ cell lines (WaGa, PeTa, MKL-1, H69, H209, H660); test: Flow cytometry binding of Alexa Fluor 750 labelled antibodies, CD56+ cell lines; details: 4° C., 30 minutes, in words
Description: (§4) Binding levels of L and mAb-003 have been evaluated on several tumor cell lines: MCC (WaGa, PeTa, MKL-1), SCLC (H69, H209) and prostate cancers (H660) as well as WaGa, PeTa and MKL-1 CD56-knocked out using CRISPR technology.
(§5) The L and mAb-003 were labelled with Alexa Fluor 750 (Alexa Fluor 750 Protein Labelling Kit, Invitrogen) to allow their detection by flow cytometry. The labelled antibodies were incubated with 1.10^5 cells at 4° C. for 30 minutes, then cells were washed twice with PBS supplemented with 1% FCS, and the binding was analysed by Flow cytometry on Cytoflex.

[5] = test system: CD56− cells (CRISPR WaGa, PeTa, MKL-1); test: Flow cytometry binding of Alexa Fluor 750 labelled antibodies, CD56- CRISPR cell lines; details: 4° C., 30 minutes, in words
Description: as §4, §5

B1: LM: Lorvotuzumab Mertansine, anti-CD56 ADC coupled to mertansine (DM1) (conjugate, chains of the INN, looked up)
VH: QVQLVESGGGVVQPGRSLRLSCAASGFTFSSFGMHWVRQAPGKGLEWVAYISSGSFTIYYADSVKGRFTISRDNSKNTLYLQMNSLRAEDTAVYYCARMRKGYAMDYWGQGTLVTVSS
VL: DVVMTQSPLSLPVTLGQPASISCRSSQIIIHSDGNTYLEWFQQRPGQSPRRLIYKVSNRFSGVPDRFSGSGSGTDFTLKISRVEAEDVGVYYCFQGSHVPHTFGQGTKVEIK
modifications: mertansine (DM1)
MKL-1 CRISPR CD56
  IC50: 74.1 nM
[1]
  Cytotoxicity on CD56− cells: nonspecific cytotoxicity
Primary NK cells
  Killing effect on primary NK cells (ADCC): ADCC killing effect was observed
PeTa
  IC50: 26.9 nM
WaGa
  IC50: 75.6 nM
WaGa CRISPR CD56
  IC50: 75.6 nM
H209
  IC50: 100 nM
H69
  IC50: 62.6 nM
[2]
  Tolerance: acceptable tolerance
[3]
  Survival benefit: did not demonstrate any survival benefit
neutrophils
  Killing effect towards neutrophils: around 15%

B2: LM-002: Deglycosylated Lorvotuzumab Mertansine: treated with PNGase F to remove the glycosylation (conjugate, chains of the INN, looked up)
VH: B1 VH
VL: B1 VL
modifications: mertansine; deglycosylated
notes: Deglycosylated Lorvotuzumab Mertansine: treated with PNGase F to remove the glycosylation
monocytes
  Killing effect on monocytes: negligible killing effect

B3: MF-L-MMAE: L conjugated to MMAE with 6-(2,6-bis(bromomethyl)pyridin-4-yl)amido-N-hexanamide-valine-citrulline-p-aminobenzoyl carbamate (conjugate, chains of the INN, looked up)
VH: B1 VH
VL: B1 VL
modifications: MMAE via val-cit PAB linker
notes: L conjugated to MMAE with 6-(2,6-bis(bromomethyl)pyridin-4-yl)amido-N-hexanamide-valine-citrulline-p-aminobenzoyl carbamate
WaGa xenograft
  Mean end tumor weight: 0.08 g

B4: L: Lorvotuzumab (antibody, chains of the INN, looked up, V domains shown)
VH: B1 VH
VL: B1 VL
[4]
  Binding to CD56+ cells: lower binding level
Primary NK cells
  Killing effect on primary NK cells (ADCC): ADCC killing effect was observed
  Killing effect on primary NK cells: 40%
neutrophils
  Killing effect towards neutrophils: about 15%
[5]
  Binding to CD56− cells (CRISPR cells): binding to CD56− cells

B5: L-002: Deglycosylated Lorvotuzumab: treated with PNGase F to remove the glycosylation at Asn297 (antibody, chains of the INN, looked up, V domains shown)
VH: B1 VH
VL: B1 VL
modifications: deglycosylated with PNGase F
notes: Deglycosylated Lorvotuzumab: treated with PNGase F to remove the glycosylation at Asn297
Primary NK cells
  Killing effect on primary NK cells: 20%
